A protein production outcome set (Wang et al. 2014)

Assay: label from the status in PepcDB records

| Sequence | protein production |
| --- | --- |
| MSDISKLIGAIVGSDDPVIIEFVLNIINKSGNLQEFIRNIQKLDAGISYEDSIKMYNAFLGKQEEEKVRNKVKSSPLSQKINQVLKDDVNLDDPVVTEFVLSILNKSKSITEFQEQLNLMQSGLDNETIFKIYQIASPPVMKEEVSVLPSTKIPAKIEAKIEEEVQKIESLDPSPVLHKVYEGKVRNITTFGCFVQIFGTRMKNCDGLVHISEMSDQRTLDPHDVVRQGQHIFVEVIKIQNNGKISLSMKNIDQHSGEIRKRNTESVEDRGRSNDAHTSRNMKNKIKRRALTSPERWEIRQLIASGAASIDDYPELKDEIPINTSYLTAKRDDGSIVNGNTEKVDSKLEEQQRDETDEIDVELNTDDGPKFLKDQQVKGAKKYEMPKITKVPRGFMNRSAINGSNAIRDHREEKLRKKREIEQQIRKQQSFDDPTKNKKDSRNEIQMLKNQLIVTEWEKNRMNESISYGKRTSLPISAQRQTLPVYAMRSELIQAVRDNQFLVIVGETGSGKTTQITQYLDEEGFSNYGMIGCTQPRRVAAVSVAKRVAEEVGCKVGHDVGYTIRFEDVTGPDTRIKYMTDGMLQREALLDPEMSKYSVIMLDEAHERTVATDVLFALLKKAAIKRPELKVIVTSATLNSAKFSEYFLNCPIINIPGKTFPVEVLYSQTPQMDYIEAALDCVIDIHINEGPGDILVFLTGQEEIDSCCEILYDRVKTLGDSIGELLILPVYSALPSEIQSKIFEPTPKGSRKVVFATNIAETSITIDGIYYVVDPGFAKINIYNARAGIEQLIVSPISQAQANQRKGRAGRTGPGKCYRLYTESAFYNEMLENTVPEIQRQNLSHTILMLKAMGINDLLKFDFMDPPPKNLMLNALTELYHLQSLDDEGKLTNLGKEMSLFPMDPTLSRSLLSSVDNQCSDEIVTIISMLSVQNVFYRPKDRQLEADSKKAKFHHPYGDHLTLLNVYTRWQQANYSEQYCKTNFLHFRHLKRARDVKSQISMIFKKIGLKLISCHSDPDLIRKTFVSGFFMNAAKRDSQVGYKTINGGTEVGIHPSSSLYGKEYEYVMYHSIVLTSREYMSQVTSIEPQWLLEVAPHFYKAGDAESQSRKKAKIIPLHNKFAKDQNSWRLSSIRQSRERALGIKR | failed |
| MANSETSLQARLWKTLSQSPDVRLWRNNVGTCKAADGRFVRFGLCPGSSDLIGLTRVTITPDMVGQTIALFTAIEVKTPTGRVTPEQQSFIDFVQRSGGRAGVARSMQDANKIISGEGHVLEHHHHHH | failed |
| MTMMTATQALSVNPATGQTLAAMPWANAQEIEHALSLAASGFKKWKMTSVAQRAQTLRDIGQALRAHAEEMAQCITREMGKPIKQARAEVTKSAALCDWYAEHGPAMLNPEPTLVENQQAVIEYRPLGVILAIMPWNFPLWQVLRGAVPILLAGNSYLLKHAPNVTGCAQMIARILAEAGTPAGVYGWVNANNEGVSQMINDPRIAAVTVTGSVRAGAAIGAQAGAALKKCVLELGGSDPFIVLNDADLELAVKAAVAGRYQNTGQVCAAAKRFIVEEGIAQAFTDRFVAAAAALKMGDPLVEENDLGPMARFDLRDELHQQVQASVAEGARLLLGGEKIAGEGNYYAATVLADVTPDMTAFRQELFGPVAAITVAKDAAHALALANDSEFGLSATIFTADDTLAAEMAARLECGGVFINGYSASDARVAFGGVKKSGFGRELSHFGLHEFCNVQTVWKNRV | failed |
| MGTYRKRFNEKARSGHMAKLKELKRIRNKQFTRQDENDERVENPDSAPAESSTTEPNANAEILEPLTEEEKKMKKRKLQELFTPKESKVSRLKKKRLDKFIEHQLKREERKTIIGKLQDYKIDTSLLTSSKRLGEGRQTKKEEFKEALSLERQGRGNEQTNEILYEEYEPKVWDEYGEGGSSEDDDGEDDFEASFGSMPKPTDNEEKKSSGFIDHRPAKFGGSGLSFGFSNIKVINKESKTPKKKYNWRQRVEMEELKKHGKEDEMDFDTTSEDDDEEEDQEEEDKMHPSENPLEEVESADSETGSEKFDQNDVANEFKDWANQEIKKLEGRDQELVTPTLNIDYKPIIRKEDLDDGLQEAYVPINENSTRKAFYVEVSRSDEIQKARIQLPVFGEEHKIMEAIHHNDVVIICGETGSGKTTQVPQFLYEAGFGAEDSPDYPGMVGITQPRRVAAVSMAERVANELGDHGHKVGYQIRFDSTAKEDTKVKFMTDGVLLREMMHDFKLTKYSSIIIDEAHERNINTDILIGMLSRCVRLRAKLHKENPIEHKKLKLIIMSATLRVSDFSENKTLFPIAPPVLQVDARQFPVSIHFNRRTAFNYTDEAFRKTCKIHQKLPPGAILVFLTGQQEITHMVKRLRKEFPFKKNSKYNKDLETPVSKMGINSKTTDLEAEDIDFSVQVIDQDKFKSAIRYEEDEGNSGNGEDEEDEEEEGFEEVLTEGQTANDPLYVLPLYSLLPTKEQMRVFQKPPQGSRLCIVATNVAETSLTIPGVRYVVDSGRSKERKYNESNGVQSFEVGWVSKASANQRSGRAGRTGPGHCYRLYSSAVFEHDFEQFSKPEILRMPVESIVLQMKSMAIHNIINFPFPTPPDRVALSKAIQLLQYLGALDNKEMITEDGKKMSLFPLSPRFSKMLLVSDEKACLPYIVAIVSALSVGDPFINEFELGINEISRKPNPDENLDDKIREHDESTPGMDPELKKELRSKFYKSRSQFSKLDKFSDVFRLLSVVSAMDYVPKEQKEIFMKKNFLRGKLMEEIVKLRKQLMYIIKSNTSKENIAVVIRNEDLKSDIPSVIQIKLLKQMICAGFVDHVAVRADVLFPDDAKITNRTSIINIPYIPVLATRTPNIEDCFVYIHPTSILNNLGEMPPKYMLYYSLHLGGNNKTRMNTLCDIASTPLANIARKGLLLTYSKPLTGQGLKTVNLSPTERYCYVVPRFGSTVDNDLKIGWDLNPIAVHQKKQKGQWTVIKFITRKGFQTITGEEKEKK | failed |
| MEPAGPCGFCPAGEVQPARYTCPRCNAPYCSLRCYRTHGTCAENFY | not failed |
| MRSDVVARAMRLIADGTVDRDGVSGLAAQLGYTIRQLERLLQAVVGAGPLALARAQRMQTARVLIETTNLPFGDVAFAAGFSSIRQFNDTVRLACDGTPTALRARAAARFESATASAGTVSLRLPVRAPFAFEGVFGHLAATAVPGCEEVRDGAYRRTLRLPWGNGIVSLTPAPDHVRCLLVLDDFRDLMTATARCRRLLDLDADPEAIVEALGADPDLRAVVGKAPGQRIPRTVDEAEFAVRAVLAQQVSTKAASTHAGRLVAAYGRPVHDRHGALTHTFPSIEQLAEIDPGHLAVPKARQRTINALVASLADKSLVLDAGCDWQRARGQLLALPGVGPWTAEVIAMRGLGDPDAFPASDLGLRLAAKKLGLPAQRRALTVHSARWRPWRSYATQHLWTTLEHPVNQWPPQEKIALEHHHHHH | failed |
| MKAVRRQISRFSAHRWWSIVLKEFLQLRRDRVTFGMMIGIPIIQLLLFGFAINSDPRHMPTAVIVAEHSDFSRTFIAALDNTTYFKVVRTMPDEASGREALMRGDVQFVVSIPADFSRRLLHGDRPSILVEADATDPSATGQAIAALAQLPATVARIDLKGALAPLAGGQPAFDVNVHRLYNPEGITQYNIVPGLMGTILTMTMVMMTGLAMTRERERGTMENLLATPVQPLEVISGKIIPYIFIGLIQATIILLAAHFVFGVPFVGSPVAVYLAALLFIAANLTVGITLSSLAANQLQALQLTFFYFLPNILLSGFMFPFAGMPTWAQWIGNVLPMTYFNRMIRSIMLKGSGWIELWPNVWPVALFTVIVLTIAVRFYKRTLD | failed |
| MSQVHRILNCRGTRIHAVADSPPDQQGPLVVLLHGFPESWYSWRHQIPALAGAGYRVVAIDQRGYGRSSKYRVQKAYRIKELVGDVVGVLDSYGAEQAFVVGHDWGAPVAWTFAWLHPDRCAGVVGISVPFAGRGVIGLPGSPFGERRPSDYHLELAGPGRVWYQDYFAVQDGIITEIEEDLRGWLLGLTYTVSGEGMMAATKAAVDAGVDLESMDPIDVIRAGPLCMAEGARLKDAFVYPETMPAWFTEADLDFYTGEFERSGFGGPLSFYHNIDNDWHDLADQQGKPLTPPALFIGGQYDVGTIWGAQAIERAHEVMPNYRGTHMIADVGHWIQQEAPEETNRLLLDFLGGLRP | not failed |
| MEKQSPTALPGTPITDMPAAAETLLALMHAQAEVARLSEREQLFSSLLVSVNAVLWAFDWETQRMIYVSPAYEHIFGRSAGLLLADYSEWRDSIYPDDLNYAERSLSEVIEKGAVEDREYRIIRADGEVRWLSDKCFVSHRADASQRLIVVGIAEDITDKKHLEDELQRLATTDVLTQSSNRRHFFECAQREFELARLNGTPLAFLLLDIDDFKLVNDTYGHQEGDTVLQRIAESGRSALRRGDLFGRIGGEEFAAVFPGCAPEMAMQIAERLQREIQRQNFQANGSTFSITASQGLTNLGPEDQGLEALYGRADAAMYQAKRQGKNQIVLV | failed |
| MMEERANLMHMMKLSIKVLLQSALSLGRSLDADHAPLQQFFVVMEHCLKHGLKVKKSFIGQNKSFFGPLELVEKLCPEASDIATSVRNLPELKTAVGRGRAWLYLALMQKKLADYLKVLIDNKHLLSEFYEPEALMMEEEGMVIVGLLVGLNVLDANLCLKGEDLDSQVGVIDFSLYLKDVQDLDGGKEHERITDVLDQKNYVEELNRHLSCTVGDLQTKIDGLEKTNSKLQEELSAATDRICSLQEEQQQLREQNELIRERSEKSVEITKQDTKVELETYKQTRQGLDEMYSDVWKQLKEEKKVRLELEKELELQIGMKTEMEIAMKLLEKDTHEKQDTLVALRQQLEEVKAINLQMFHKAQNAESSLQQKNEAITSFEGKTNQVMSSMKQMEERLQHSERARQGAEERSHKLQQELGGRIGALQLQLSQLHEQCSSLEKELKSEKEQRQALQRELQHEKDTSSLLRMELQQVEGLKKELRELQDEKAELQKICEEQEQALQEMGLHLSQSKLKMEDIKEVNQALKGHAWLKDDEATHCRQCEKEFSISRRKHHCRNCGHIFCNTCSSNELALPSYPKPVRVCDSCHTLLLQRCSSTAS | not failed |
| MKIIFSASPANRAAAYALRQAVFVEERGISADVEFDVKDTDQCEYAVLYLQPDLPITTLRLEPQADHVMRFGRVCTRKAYRGHGWGRQLLTAAEEWATQRGFTHGEIHGELTAQRFYELCGYRVTAGPYDEDGAPVVIMHKQ | failed |
| MGHHHHHHENLYFQSHMKFLLAFSLLIPSVVFASSSKFQQVEQDVKAIEVSLSARIGVSVLDTQNGEYWDYNGNQRFPLTSTFKTIACAKLLYDAEQGKVNPNSTVEIKKADLVTYSPVIEKQVGQAITLDDACFATMTTSDNTAANIILSAVGGPKGVTDFLRQIGDKETRLDRIEPDLNEGKLGDLRDTTTPKAIASTLNKFLFGSALSEMNQKKLESWMVNNQVTGNLLRSVLPAGWNIADRSGAGGFGARSITAVVWSEHQAPIIVSIYLAQTQASMEERNDAIVKIGHSIFDVYTSQSR | not failed |
| VKTPGTRYVTHKQLDEKLKNFVTKTEFKEFQTVVMESFAVQNQNIDAQGEQIKELQVEQKAQGKTLQLILEALQGINKRLDNLES | not failed |
| MESIEQQLTELRTTLRHHEYLYHVMDAPEIPDAEYDRLMRELRELETKHPELITPDSPTQRVGAAPLAAFSQIRHEVPMLSLDNVFDEESFLAFNKRVQDRLKNNEKVTWCCELKLDGLAVSILYENGVLVSAATRGDGTTGEDITSNVRTIRAIPLKLHGENIPARLEVRGEVFLPQAGFEKINEDARRTGGKVFANPRNAAAGSLRQLDPRITAKRPLTFFCYGVGVLEGGELPDTHLGRLLQFKKWGLPVSDRVTLCESAEEVLAFYHKVEEDRPTLGFDIDGVVIKVNSLAQQEQLGFVARAPRWAVAFKFPAQEQMTFVRDVEFQVGRTGAITPVARLEPVHVAGVLVSNATLHNADEIERLGLRIGDKVVIRRAGDVIPQVVNVVLSERPEDTREVVFPTHCPVCGSDVERVEGEAVARCTGGLICGAQRKESLKHFVSRRAMDVDGMGDKIIDQLVEKEYVHTPADLFKLTAGKLTGLERMGPKSAQNVVNALEKAKETTFARFLYALGIREVGEATAAGLAAYFGTLEALEAASIEELQKVPDVGIVVASHVHNFFAEESNRNVISELLAEGVHWPAPIVINAEEIDSPFAGKTVVLTGSLSQMSRDDAKARLVELGAKVAGSVSKKTDLVIAGEAAGSKLAKAQELGIEVIDEAEMLRLLGS | not failed |
| RNFLNNQQIRAQVHRRILEQLPTEGEIVLLGHSLGSVIAADLLRRLPPELTVKGFVTIGSPLANGQFNVDDLFKLLRTPLSNVSWWVNFWSGS | failed |
